# Results from PMC5501851, “A tyrosine aminotransferase involved in rosmarinic acid biosynthesis in Prunella vulgaris L” (Scientific Reports, 2017).
# B1: PvTAT (tyrosine aminotransferase of Prunella vulgaris) (Prunella vulgaris) (protein)
# chain: MELQSSAQELDAPTTITIKGILGLLVSSTDAKETGKRVISLGIGDPTAYSCFHVSNAAQEAVVEALRSQKFNGYAPTAGLPQAREAIAEYLSRDLPYKLPADSVYVTAGCTQAIEIALSVLARPGCNILLPRPCFPIYGLCASFRNIEVRYFDLHPEKGWEVDLDAVQDLADHNTVAMVIINPGNPCGNVYSHQHLRKVAEMAKRLGIVVIADEVYGQLAFGANPFVPMGIFGSIAPVVTLGSLSKRWLIPGWRLGWLVINDPDGSLMSPKFVERIKKYCDINGGPATFIQAAVPEIIEQTQEVFFRKTINILKQTSDICYQKVEDINGISCPTKPKGAMAFMVKLNISQMKDISDDIDFCFKLAKEESVIILPGIAVGLKNWIRITFAVEPSALEEAMERLKSFCERHSY
# notes: E. coli Rosetta (DE3); cloning primers translate to N-terminus MELQSSAQ and C-terminus FCERHSY
# Assays:
# [1] = target: T1, PvTAT (tyrosine aminotransferase of Prunella vulgaris) (Prunella vulgaris, UniProt A0A0U1ZFM1); test: phenylpyruvate absorbance at […] nm, nonlinear Michaelis-Menten fit; assay type: biochemical; details: 10 mM α-ketoglutarate; 0.1 mM PLP, 0.75 mM EDTA, 125 mM potassium phosphate pH 8.0, 30 °C
# T1 construct: gene tat; E. coli Rosetta (DE3); cloning primers translate to N-terminus MELQSSAQ and C-terminus FCERHSY
# [2] = substrate: CC(=O)C(=O)O; test: purified protein; assay type: biochemical, Prunella vulgaris; details: 5.5 mM L-Tyr as amino donor, 0.1 mM PLP, 0.75 mM EDTA, 125 mM potassium phosphate pH 8.0, 30 °C
# [3] = substrate: N[C@@H](Cc1c[nH]c2ccccc12)C(=O)O; test: purified protein; assay type: biochemical, Prunella vulgaris; details: 10 mM α-ketoglutarate, 0.1 mM PLP, 0.75 mM EDTA, 125 mM potassium phosphate pH 8.0, 30 °C
# [4] = substrate: N[C@@H](Cc1ccc(O)cc1)C(=O)O; test: purified protein; assay type: biochemical, Prunella vulgaris; details: 10 mM α-ketoglutarate, 0.1 mM PLP, 0.75 mM EDTA, 125 mM potassium phosphate pH 8.0, 30 °C
# [5] = substrate: O=C(O)C(=O)Cc1ccc(O)cc1; test: purified protein; assay type: biochemical, Prunella vulgaris; details: 10 mM L-Glu as amino donor, 0.3 mM NAD, 0.3 mM CoA, 0.75 mM EDTA, 125 mM potassium phosphate pH 8.0, 30 °C
# [6] = substrate: O=C(O)C(=O)Cc1ccccc1; test: purified protein; assay type: biochemical, Prunella vulgaris; details: 5.5 mM L-Tyr as amino donor, 0.1 mM PLP, 0.75 mM EDTA, 125 mM potassium phosphate pH 8.0, 30 °C
# [7] = substrate: O=C(O)CC(=O)C(=O)O; test: purified protein; assay type: biochemical, Prunella vulgaris; details: 5.5 mM L-Tyr as amino donor, 0.1 mM PLP, 0.75 mM EDTA, 125 mM potassium phosphate pH 8.0, 30 °C
# [8] = substrate: O=C(O)CCC(=O)C(=O)O; test: purified protein; assay type: biochemical, Prunella vulgaris; details: 5.5 mM L-Tyr as amino donor, 0.1 mM PLP, 0.75 mM EDTA, 125 mM potassium phosphate pH 8.0, 30 °C
molecule,measurement,setting,value
N[C@@H](Cc1ccccc1)C(=O)O [L-Phe],Km,[1],10.2 ± 0.05 mM
B1,Km,[2],52.06 ± 1.38 mM
same,Vmax,[2],1.3 µmol/min/mg
same,kcat,[2],0.89 ± 0.01 s⁻¹
same,kcat/Km,[2],20 ± 3 M⁻¹ s⁻¹
same,Km,[3],8.14 ± 1.04 mM
same,Vmax,[3],1.53 µmol/min/mg
same,kcat,[3],1.05 ± 0.08 s⁻¹
same,kcat/Km,[3],130 ± 8 M⁻¹ s⁻¹
same,Km,[4],0.40 ± 0.05 mM
same,Vmax,[4],1.74 µmol/min/mg
same,kcat,[4],1.19 ± 0.009 s⁻¹
same,kcat/Km,[4],3030 ± 350 M⁻¹ s⁻¹
same,Km,[5],0.48 ± 0.004 mM
same,Vmax,[5],0.18 µmol/min/mg
same,kcat,[5],0.121 ± 0.01 s⁻¹
same,kcat/Km,[5],295 ± 35 M⁻¹ s⁻¹
same,Km,[6],3.90 ± 0.067 mM
same,Vmax,[6],0.43 µmol/min/mg
same,kcat,[6],0.3 ± 0.01 s⁻¹
same,kcat/Km,[6],76 ± 1 M⁻¹ s⁻¹
same,Km,[7],4.72 ± 0.05 mM
same,Vmax,[7],1.06 µmol/min/mg
same,kcat,[7],0.73 ± 0.01 s⁻¹
same,kcat/Km,[7],150 ± 5 M⁻¹ s⁻¹
same,Km,[8],10.80 ± 0.19 mM
same,Vmax,[8],0.92 µmol/min/mg
same,kcat,[8],0.63 ± 0.002 s⁻¹
same,kcat/Km,[8],60 ± 8 M⁻¹ s⁻¹
